This experiment addresses monomeric human Fc-fused SARS-CoV-2_RBD-SD1 (UniProt P0DTC2 319-591). The experiment can be described thus: BLI. A general note: BLI is a label-free optical method that tracks binding on a fibre tip over time.

B1: VHH3.89 (VHH)
VHH: QVQLQESGGGLVQPGGSLRLSCAASGFTLDYYAIGWFREVPGKEREGLSRIDSSDGSTYYADSVKGRFTISRDNTKNIVYLQMNNLKPEDTAVYYCATDPIIQGRNWYWTGWGQGTQVTVSS
One may read the koff as the rate constant with which the complex falls apart. Read a high koff as fast dissociation. The molecule B1 registered a koff of 0.0002 s⁻¹.

These data come from patent publication US20240101647A1 (published 2024).
